Results reported in patent US20030152568A1.

Target: FGF receptor-3c on human osteosarcoma cell line (ATCC, CRL 1543) (human) (UniProt P22607)
Experiment: cell-based or functional assay

Chain of UniProt P22607 (P22607 23-806): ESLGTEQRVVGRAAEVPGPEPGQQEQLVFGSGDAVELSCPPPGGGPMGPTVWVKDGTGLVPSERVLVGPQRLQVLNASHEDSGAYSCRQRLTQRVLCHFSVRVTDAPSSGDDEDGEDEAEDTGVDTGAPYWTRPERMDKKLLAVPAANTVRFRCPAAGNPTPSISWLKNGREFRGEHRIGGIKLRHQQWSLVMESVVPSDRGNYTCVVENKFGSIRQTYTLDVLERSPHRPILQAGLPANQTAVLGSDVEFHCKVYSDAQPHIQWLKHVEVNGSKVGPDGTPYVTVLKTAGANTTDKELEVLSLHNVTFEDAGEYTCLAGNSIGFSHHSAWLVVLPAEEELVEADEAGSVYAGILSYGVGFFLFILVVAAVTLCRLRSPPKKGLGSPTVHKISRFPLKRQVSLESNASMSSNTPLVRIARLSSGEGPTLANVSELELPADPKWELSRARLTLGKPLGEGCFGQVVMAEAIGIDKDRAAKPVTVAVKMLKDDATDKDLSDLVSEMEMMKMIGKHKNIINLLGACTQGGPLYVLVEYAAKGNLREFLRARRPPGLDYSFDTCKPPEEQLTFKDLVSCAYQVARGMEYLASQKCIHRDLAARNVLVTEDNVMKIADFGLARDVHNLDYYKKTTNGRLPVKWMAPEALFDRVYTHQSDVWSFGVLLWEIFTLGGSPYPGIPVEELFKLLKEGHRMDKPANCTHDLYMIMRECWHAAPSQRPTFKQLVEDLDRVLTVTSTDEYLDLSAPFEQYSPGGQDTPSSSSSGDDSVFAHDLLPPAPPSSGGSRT
Chain of FGF-18-saporin conjugate (O76093 28-207): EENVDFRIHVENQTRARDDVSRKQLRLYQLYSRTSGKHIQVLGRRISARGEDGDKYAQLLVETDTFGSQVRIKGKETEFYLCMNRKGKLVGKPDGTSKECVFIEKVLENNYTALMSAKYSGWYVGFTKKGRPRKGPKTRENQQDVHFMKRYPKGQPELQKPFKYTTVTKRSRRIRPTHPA

For FGF-18-saporin conjugate, which LD50 (sensitivity of cell lines to the FGF-18-saporin conjugate) is on record?
The LD50 (sensitivity of cell lines to the FGF-18-saporin conjugate) was under 1 nM.
